From US20150005237A1, “PEPTIDIC INHIBITOR OF SIGNAL TRANSMISSION FROM G-ALPHA-S TO G-ALPHA-I-COUPLED RECEPTOR CASCADES” (UNIVERSITÄT INNSBRUCK, priority 2011, published 2015)

How the values were obtained:
[1] = molecular target: Gαi3 transiently overexpressed in COS7 cells; assay: cAMP agarose precipitation from COS7 lysates after 15 min forskolin, immunoblot densitometry
[2] = molecular target: Gαi of δOR-HEK293 cells (endogenous, receptor-activated); assay: cell-based or functional assay

fold enrichment of R:Gαi3 complexes (forskolin pre-treatment against basal conditions) [1] | sensitivity of the MAPK pathway (SNC80-mediated ERK1/2 phosphorylation) to stimulation by the δOR agonist [2] | Substance
3.8 fold |  | endogenous PKA regulatory subunits (R/Reg) of COS7 cells, bound to 2AHA-cAMP-coupled agarose beads
 | 7 fold | endogenous PKA regulatory subunits (R; RII/RegII) of δOR-HEK293 cells, cAMP-activated
